# From IntAct's records for PubMed 11729193
# B1: Cell death abnormality protein 1 (Caenorhabditis elegans), Q9XWD6 (parent)
# chain: MRLILLVLLATWQVVVDTRAPTFPDKLTQQLQQQGTTEPQGDHVCTVKTIVDDYELKKVIHTVVYNDTEQCLNPLTGFQCTVEKRGQKASYQRQLVKKEKYVKQCCDGYYQTKDHFCLPDCNPPCKKGKCIEPGKCECDPGYGGKYCASSCSVGTWGLGCSKSCDCENGANCDPELGTCICTSGFQGERCEKPCPDNKWGPNCVKSCPCQNGGKCNKEGKCVCSDGWGGEFCLNKCEEGKFGAECKFECNCQNGATCDNTNGKCICKSGYHGALCENECSVGFFGSGCTQKCDCLNNQNCDSSSGECKCIGWTGKHCDIGCSRGRFGLQCKQNCTCPGLEFSDSNASCDAKTGQCQCESGYKGPKCDERKCDAEQYGADCSKTCTCVRENTLMCAPNTGFCRCKPGFYGDNCELACSKDSYGPNCEKQAMCDWNHASECNPETGSCVCKPGRTGKNCSEPCPLDFYGPNCAHQCQCNQRGVGCDGADGKCQCDRGWTGHRCEHHCPADTFGANCEKRCKCPKGIGCDPITGECTCPAGLQGANCDIGCPEGSYGPGCKLHCKCVNGKCDKETGECTCQPGFFGSDCSTTCSKGKYGESCELSCPCSDASCSKQTGKCLCPLGTKGVSCDQKCDPNTFGFLCQETVTPSPCASTDPKNGVCLSCPPGSSGIHCEHNCPAGSYGDGCQQVCSCADGHGCDPTTGECICEPGYHGKTCSEKCPDGKYGYGCALDCPKCASGSTCDHINGLCICPAGLEGALCTRPCSAGFWGNGCRQVCRCTSEYKQCNAQTGECSCPAGFQGDRCDKPCEDGYYGPDCIKKCKCQGTATSSCNRVSGACHCHPGFTGEFCHALCPESTFGLKCSKECPKDGCGDGYECDAAIGCCHVDQMSCGKAKQEFEALNGAGRSTGLTWFFVLLIVALCGGLGLIALFYRNKYQKEKDPDMPTVSFHKAPNNDEGREFQNPLYSRQSVFPDSDAFSSENNGNHQGGPPNGLLTLEEEELENKKIHGRSAAGRGNNDYASLDEVAGEGSSSSASASASRRGLNSSEQSRRPLLEEHDEEEFDEPHENSISPAHAVTTSNHNENPYADISSPDPVTQNSANKKRAQDNLYT
# partner: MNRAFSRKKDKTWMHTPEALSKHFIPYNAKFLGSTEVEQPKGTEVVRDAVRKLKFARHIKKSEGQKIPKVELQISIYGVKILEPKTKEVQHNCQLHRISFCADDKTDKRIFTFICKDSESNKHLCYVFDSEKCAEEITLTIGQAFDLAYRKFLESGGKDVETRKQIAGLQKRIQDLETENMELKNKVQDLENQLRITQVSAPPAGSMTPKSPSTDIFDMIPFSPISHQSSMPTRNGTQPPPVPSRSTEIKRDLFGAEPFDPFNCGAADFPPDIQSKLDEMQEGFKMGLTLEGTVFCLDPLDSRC
# B2: Cell death abnormality protein 1 (Caenorhabditis elegans), Q9XWD6 (parent)
# chain: B1 chain
# partner: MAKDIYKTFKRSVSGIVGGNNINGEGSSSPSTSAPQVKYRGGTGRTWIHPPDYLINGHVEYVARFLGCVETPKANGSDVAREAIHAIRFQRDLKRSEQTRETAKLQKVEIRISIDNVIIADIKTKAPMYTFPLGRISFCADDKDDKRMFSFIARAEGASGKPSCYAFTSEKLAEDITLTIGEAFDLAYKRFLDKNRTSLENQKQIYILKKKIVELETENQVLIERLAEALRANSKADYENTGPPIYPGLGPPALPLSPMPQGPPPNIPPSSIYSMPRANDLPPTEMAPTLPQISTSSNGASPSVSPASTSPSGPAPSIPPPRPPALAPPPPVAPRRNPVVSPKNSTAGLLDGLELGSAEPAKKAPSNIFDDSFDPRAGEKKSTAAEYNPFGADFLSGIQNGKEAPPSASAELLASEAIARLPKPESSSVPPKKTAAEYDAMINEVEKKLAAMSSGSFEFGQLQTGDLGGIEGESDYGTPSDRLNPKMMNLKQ
# Variants of: B1
# Conditions: with gulp1_human GULP1, Q9UBP9
row,Variant,effect of a mutation on the interaction
1,N962A,disrupting interaction strength

# Variants of: B2
# Conditions: with ced6_caeel ced-6, O76337
row,Variant,effect of a mutation on the interaction
1,N962A,disrupting interaction strength
